Source: patent US20230406907A1 (SORRENTO THERAPEUTICS, published 2023)

Target: SARS-CoV-2 S1 subunit (amino acids 16-685 of SEQ ID NO:1, i.e. SEQ ID NO:4) with a carboxy terminal … (SARS-CoV-2, UniProt P0DTC2 16-685)

B1: antibody S1D2 (fully human recombinant monoclonal IgG1, no Fc mutation) (antibody, V domains shown)
VH: EVQLVESGGGLIQPGGSLRLSCAASGFTVSSNYMSWVRQAPGKGLEWVSIIYPGGSTNYADSVKGRFTISRDNSRNTLYLQMNSLRAEDTAVYYCARELGYYGMDVWGQGTTVTVSS
VL: DIQMTQSPSSVSASVGDRVTITCRASQGISTWLVWYQQKPGKAPNLLIYGASSLQSGVPSRFSGSGSGTDFTLTISSLQPEDFATYYCQQANSFPYTFGQGTKLEIK
IC50: 1.87 nM
